Results as given in patent publication US20260274928A1.

Biological target: 13-strain panel of SARS-CoV-2 variant lineages (RBDs)
Test: SPR, Fab on captured His-AviTag RBD, single-cycle kinetics

B1: S2V29-v37.2 Fab (Fab, V domains shown)
VH: EVQLVESGGSVVQPGRALRLSCAASGITFSSFGMYWVRQAPGKGLEWLGYIAYDGSDTYYADSVKGRFTISRDNSKNTLYLQMNSLRIEDTAVYYCAKDYYPLLSYYYGLDVWGQGTTVTVSS
VL: QSVLTQPRSVSGSPGQSVTISCTGTSSDVGAYNYVSWYQQHPGKAPKFMIYDVDQRPSGVPDRFSGSKSGNTASLIISGLQAEDEADYYCSSYAGSYIWVFGGGTQLTVL
- Kd: 0.05 to 5 nM
- median KD: 0.26 nM
